Assay results from the supplement of paper PMC9112550, “Optimization of the antimicrobial peptide Bac7 by deep mutational scanning” (BMC Biology, 2022).

What follows are sequences tested on Escherichia coli TOP10 (assay: shrunken log2 fold change of peptide-encoding DNA abundance (4.5 h post-induction vs induction); higher = less antimicrobial activity (less host growth inhibition)). Conditions: time post-induction: 4.5 h; library: site-saturation at positions 5, 18, 19, 20.
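Also: peptides expressed intracellularly from a pBAD plasmid library in pooled LB shake-flask culture, induced with 0.3% L-arabinose, DNA abundance read by NGS, three biological replicates, DESeq2 with apeglm shrinkage.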

Sequence | shrunken log2 fold change
RRIRQRPPRLPRPRPRPYTDPRP | -0.209
RRIRNRPPRLPRPRPRPFGYPRP | -0.377
RRIRFRPPRLPRPRPRPLVYPRP | -0.631
RRIRKRPPRLPRPRPRPHQKPRP | -0.0675
RRIRRRPPRLPRPRPRPVGVPRP | 0.705
RRIRGRPPRLPRPRPRPPDPPRP | 1.57
RRIRDRPPRLPRPRPRPNSIPRP | -0.211
RRIRPRPPRLPRPRPRPWSGPRP | 0.000793
RRIRARPPRLPRPRPRPCLYPRP | 0.137
RRIRSRPPRLPRPRPRPAFRPRP | 0.452
RRIRWRPPRLPRPRPRPFDHPRP | 0.124
RRIRQRPPRLPRPRPRPMYYPRP | 0.0048
RRIRGRPPRLPRPRPRPEHHPRP | 0.262
RRIRFRPPRLPRPRPRPFYGPRP | -0.146
RRIRWRPPRLPRPRPRPDNPPRP | 0.208
RRIRGRPPRLPRPRPRPSWEPRP | 0.0693
RRIRERPPRLPRPRPRPTTGPRP | -0.0235
RRIRPRPPRLPRPRPRPADMPRP | 0.0113
RRIRSRPPRLPRPRPRPASSPRP | -0.201
RRIRNRPPRLPRPRPRPQEIPRP | -0.00783
RRIRGRPPRLPRPRPRPVLTPRP | 0.834
RRIRARPPRLPRPRPRPEQAPRP | 0.759
RRIRYRPPRLPRPRPRPKYDPRP | -0.324
RRIRFRPPRLPRPRPRPAHCPRP | 0.0781
RRIRTRPPRLPRPRPRPAGNPRP | 0.00723

Sequence | shrunken log2 fold change
RRIRARPPRLPRPRPRPCWFPRP | 0.107
RRIRQRPPRLPRPRPRPTYFPRP | -0.0458
RRIRSRPPRLPRPRPRPGKRPRP | -0.0142
RRIRHRPPRLPRPRPRPFRTPRP | -0.0018
RRIRCRPPRLPRPRPRPLGKPRP | -0.101
RRIRARPPRLPRPRPRPFLRPRP | 0.0973
RRIRDRPPRLPRPRPRPAMTPRP | 0.812
RRIRRRPPRLPRPRPRPCWMPRP | 0.415
RRIRWRPPRLPRPRPRPIFQPRP | -0.103
RRIRFRPPRLPRPRPRPRGKPRP | 0.734
RRIRARPPRLPRPRPRPGVIPRP | 0.0533
RRIRKRPPRLPRPRPRPRQEPRP | 0.461
RRIRHRPPRLPRPRPRPWVKPRP | -0.0135
RRIRPRPPRLPRPRPRPMDQPRP | -0.113
RRIRCRPPRLPRPRPRPPYQPRP | -0.138
RRIRHRPPRLPRPRPRPVMIPRP | -0.0805
RRIRRRPPRLPRPRPRPWHGPRP | -0.202
RRIRPRPPRLPRPRPRPAWTPRP | 0.492
RRIRRRPPRLPRPRPRPFIDPRP | -0.162
RRIRARPPRLPRPRPRPDETPRP | 0.00253
RRIRFRPPRLPRPRPRPIMMPRP | -0.529
RRIRPRPPRLPRPRPRPDTGPRP | 0.128
RRIRFRPPRLPRPRPRPSYLPRP | -0.736
RRIRCRPPRLPRPRPRPQTYPRP | -0.727
RRIRSRPPRLPRPRPRPMFQPRP | 0.0483

Sequence | shrunken log2 fold change
RRIRHRPPRLPRPRPRPKKQPRP | -0.0264
RRIRLRPPRLPRPRPRPTSVPRP | -0.0387
RRIRLRPPRLPRPRPRPMDFPRP | -0.0499
RRIRFRPPRLPRPRPRPAWFPRP | 0.122
RRIRERPPRLPRPRPRPTQCPRP | -0.133
RRIRQRPPRLPRPRPRPQNSPRP | -0.0328
RRIRERPPRLPRPRPRPMHPPRP | 0.464
RRIRIRPPRLPRPRPRPVTLPRP | -0.093
RRIRFRPPRLPRPRPRPRIIPRP | -0.514
RRIRDRPPRLPRPRPRPRNPPRP | -0.0578
RRIRNRPPRLPRPRPRPSYEPRP | -0.999
RRIRIRPPRLPRPRPRPHEQPRP | -0.288
RRIRGRPPRLPRPRPRPGSYPRP | -0.242
RRIRGRPPRLPRPRPRPTFCPRP | 0.46
RRIRHRPPRLPRPRPRPCPVPRP | -0.0628
RRIRTRPPRLPRPRPRPFQTPRP | 0.0582
RRIRLRPPRLPRPRPRPTEPPRP | 0.0962
RRIRCRPPRLPRPRPRPRQTPRP | 0.781
RRIRRRPPRLPRPRPRPGFYPRP | -0.107
RRIRERPPRLPRPRPRPSTVPRP | -0.0579
RRIRNRPPRLPRPRPRPNFEPRP | -0.0924
RRIRKRPPRLPRPRPRPPYQPRP | 0.0608
RRIRERPPRLPRPRPRPVSCPRP | 0.182
RRIRERPPRLPRPRPRPPRCPRP | -0.0309
RRIRFRPPRLPRPRPRPGLKPRP | 0.0731

Sequence | shrunken log2 fold change
RRIRIRPPRLPRPRPRPFARPRP | -0.0891
RRIRYRPPRLPRPRPRPHKLPRP | -0.188
RRIRLRPPRLPRPRPRPQTQPRP | 0.0159
RRIRRRPPRLPRPRPRPCRDPRP | 0.0656
RRIRYRPPRLPRPRPRPGCQPRP | 0.0142
RRIRSRPPRLPRPRPRPYLCPRP | -0.627
RRIRVRPPRLPRPRPRPGAMPRP | 0.0686
RRIRQRPPRLPRPRPRPCYLPRP | -0.195
RRIRERPPRLPRPRPRPVHFPRP | 0.0364
RRIRNRPPRLPRPRPRPQSCPRP | -0.00689
RRIRTRPPRLPRPRPRPRCQPRP | 0.113
RRIRSRPPRLPRPRPRPWIKPRP | -0.34
RRIRWRPPRLPRPRPRPDGQPRP | -0.000921
RRIRVRPPRLPRPRPRPAKHPRP | -0.169
RRIRIRPPRLPRPRPRPHEIPRP | -0.256
RRIRSRPPRLPRPRPRPMQDPRP | 0.125
RRIRYRPPRLPRPRPRPSQLPRP | -0.506
RRIRARPPRLPRPRPRPCDFPRP | -0.128
RRIRHRPPRLPRPRPRPRISPRP | 0.0117
RRIRKRPPRLPRPRPRPDWHPRP | 0.0739
RRIRQRPPRLPRPRPRPDCFPRP | 0.291
RRIRDRPPRLPRPRPRPTPYPRP | -0.13
RRIRRRPPRLPRPRPRPNISPRP | -0.263
RRIRFRPPRLPRPRPRPRFMPRP | -0.117
RRIRSRPPRLPRPRPRPMKGPRP | -0.311

Sequence | shrunken log2 fold change
RRIRNRPPRLPRPRPRPQEWPRP | -0.00211
RRIRTRPPRLPRPRPRPFTVPRP | -0.00127
RRIRARPPRLPRPRPRPHGTPRP | -0.0246
RRIRLRPPRLPRPRPRPTYHPRP | -0.358
RRIRKRPPRLPRPRPRPSINPRP | 0.0278
RRIRQRPPRLPRPRPRPRFQPRP | 0.202
RRIRMRPPRLPRPRPRPPPAPRP | 2.14
RRIRRRPPRLPRPRPRPQFHPRP | -0.133
RRIRERPPRLPRPRPRPLYCPRP | -0.444
RRIRVRPPRLPRPRPRPFWRPRP | 0.0595
RRIRGRPPRLPRPRPRPQTGPRP | 0.162
RRIRPRPPRLPRPRPRPFSMPRP | -0.161
RRIRKRPPRLPRPRPRPKLDPRP | 0.707
RRIRIRPPRLPRPRPRPATPPRP | 0.0979
RRIRIRPPRLPRPRPRPGFNPRP | -0.135
RRIRKRPPRLPRPRPRPMHRPRP | 0.0595
RRIRNRPPRLPRPRPRPSFHPRP | -0.41
RRIRGRPPRLPRPRPRPLFKPRP | 0.337
RRIRYRPPRLPRPRPRPWFSPRP | -0.346
RRIRLRPPRLPRPRPRPGLVPRP | 0.0948
RRIRLRPPRLPRPRPRPMDCPRP | -0.0117
RRIRARPPRLPRPRPRPQDNPRP | -0.0337
RRIRIRPPRLPRPRPRPNGTPRP | -0.201
RRIRFRPPRLPRPRPRPYTFPRP | -1.3
RRIRMRPPRLPRPRPRPSQWPRP | 0.0206

Sequence | shrunken log2 fold change
RRIRHRPPRLPRPRPRPANYPRP | -0.00316
RRIRQRPPRLPRPRPRPPQAPRP | 0.718
RRIRGRPPRLPRPRPRPCDSPRP | 0.0374
RRIRLRPPRLPRPRPRPDSLPRP | -0.335
RRIRHRPPRLPRPRPRPKKAPRP | 0.0601
RRIRFRPPRLPRPRPRPHTLPRP | -0.62
RRIRWRPPRLPRPRPRPFIKPRP | -0.686
RRIRFRPPRLPRPRPRPKFCPRP | 0.00718
RRIRFRPPRLPRPRPRPWENPRP | -0.0884
RRIRYRPPRLPRPRPRPCGKPRP | -0.0542
RRIRTRPPRLPRPRPRPDCCPRP | 0.135
RRIRFRPPRLPRPRPRPNDIPRP | -0.169
RRIRWRPPRLPRPRPRPWIIPRP | -0.267
RRIRWRPPRLPRPRPRPDRRPRP | -0.0279
RRIRVRPPRLPRPRPRPFRDPRP | -0.0207
RRIRGRPPRLPRPRPRPCNIPRP | -0.284
RRIRARPPRLPRPRPRPSCVPRP | 0.157
RRIRWRPPRLPRPRPRPGDEPRP | 0.0372
RRIRQRPPRLPRPRPRPWELPRP | 0.0585
RRIRHRPPRLPRPRPRPHEKPRP | -0.00373
RRIRHRPPRLPRPRPRPRHSPRP | -0.173
RRIRYRPPRLPRPRPRPKRKPRP | -0.128
RRIRARPPRLPRPRPRPWLKPRP | -0.0421
RRIRPRPPRLPRPRPRPQRTPRP | 0.113
RRIRYRPPRLPRPRPRPICYPRP | -0.691
